Data taken from EP3470426A1 (Numab Therapeutics AG, dated 2019).
Values joined by “and” are separate entries in the source; they are usually repeats but may differ in a detail not shown here. Equal entries are not always repeated. Where two headings read alike, the source gives them in different places.

B1: Urelumab (antibody, V domains shown)
VH: QVQLQQWGAGLLKPSETLSLTCAVYGGSFSGYYWSWIRQSPEKGLEWIGEINHGGYVTYNPSLESRVTISVDTSKNQFSLKLSSVTAADTAVYYCARDYGPGNYDWYFDLWGRGTLVTVSS
VL: EIVLTQSPATLSLSPGERATLSCRASQSVSSYLAWYQQKPGQAPRLLIYDASNRATGIPARFSGSGSGTDFTLTISSLEPEDFAVYYCQQRSNWPPALTFGGGTKVEIK
B2: PRO885 (bispecific antibody)
chain: DIQMTQSPSSLSASVGDRVTITCQASQSINDYLAWYQQKPGKAPKLLIYKASTLASGVPSRFSGSGSGTDFTLTISSLQPEDFATYYCQQGYIITDIDNVFGTGTKVTVLGGGGGSQVQLQESGPGLVKPSETLSLTCKVSGFSFSNSYWICWIRQPPGKGLEWIGCTFVGSSDSTYYANWAKGRVTISVDSSKNQFSLKLSSVTAADTAVYYCARHPSDAVYGYANNLWGQGTLVTVSSGGGGSGGGGSGGGGSGGGGSIQMTQSPSSLSASVGDRVTITCQASQSINNVLAWYQQKPGKAPKLLIYRASTLASGVPSRFSGSGSGTDFTLTISSLQPEDFATYYCQSSYGNYGDFGTGTKVTVLGGGGGSQVQLQESGPGLVKPSETLSLTCKVSGFSFSSGYDMCWIRQPPGKGLEWIGCVVAGSVDITYYASWAKGRVTISVDSSKNQFSLKLSSVTAADTAVYYCARKDAYSDAFNLWGQGTLVTVSS
B3: PRO997 (scFv)
scFv: DIQMTQSPSSLSASVGDRVTITCQASQSIGTYLAWYQQKPGKAPKLLIYRAFILASGVPSRFSGSGSGTDFTLTISSLQPEDFATYYCQSNFYSDSTTIGPNAFGTGTKVTVLGGGGGSGGGGSGGGGSGGGGSQVQLQESGPGLVKPSETLSLTCKVSGFSFNSDYWIYWIRQPPGKGLEWIGSIYGGSSGNTQYASWAQGRVTISVDSSKNQFSLKLSSVTAADTAVYYCARGYVDYGGATDLWGQGTLVTVSS
notes: also called 37-20-B03sc01; PRO977

Experiments:
[1] = molecular target: T1, CD137 on Jurkat NFkB reporter cells (human, UniProt Q07011 24-255); assay: cell-based or functional assay
[2] = molecular target: T1, CD137 on Jurkat NFkB reporter cells; assay: cell-based or functional assay; remark: listed apart in the source
[3] = molecular target: T1, CD137 on Jurkat NFkB reporter cells; assay: cell-based or functional assay; remark: listed apart in the source
[4] = molecular target: T1, CD137 on Jurkat NFkB reporter cells; assay: cell-based or functional assay; remark: listed apart in the source
[5] = molecular target: T1, CD137 on Jurkat NFkB reporter cells; assay: cell-based or functional assay; remark: listed apart in the source
[6] = molecular target: T1, CD137 on Jurkat NFkB reporter cells; assay: cell-based or functional assay; remark: listed apart in the source
[7] = molecular target: T1, CD137 on Jurkat NFkB reporter cells; assay: cell-based or functional assay; remark: listed apart in the source
[8] = molecular target: T1, CD137 on Jurkat NFkB reporter cells; assay: cell-based or functional assay; remark: listed apart in the source
human PD-L1 on cells [9] = molecular target: T2, human PD-L1 on cells (human, UniProt Q9NZQ7 19-290); assay: cell-based or functional assay
human PD-L1 on cells [10] = molecular target: T2, human PD-L1 on cells; assay: cell-based or functional assay; remark: listed apart in the source
human PD-L1 on cells [11] = molecular target: T2, human PD-L1 on cells; assay: cell-based or functional assay; remark: listed apart in the source
[12] = molecular target: human PD-L1-Fc chimeric protein (human); assay: SPR, PD-L1-Fc captured, binder injected
human PD-L1 on cells [13] = molecular target: T2, human PD-L1 on cells; assay: cell-based or functional assay; remark: listed apart in the source

| Binder | EC50, NFkB-luciferase reporter, CHO-PD-L1 cells [1] | EC50, NFkB-luciferase reporter, HCC827 cells without IFNg [2] | EC50, NFkB-luciferase reporter, HCC827 cells stimulated with IFNg [3] | EC50, NFkB-luciferase reporter, PD-L1 expressing CHO cells, 6h [4] | EC50, NFkB-luciferase reporter, PD-L1 expressing CHO cells, 6h, + HSA [4] | EC50, NFkB-luciferase reporter, HCC827 with IFNy stimulation, 24h [5] | EC50, NFkB-luciferase reporter, HCC827 without IFNy stimulation, 24h [5] | EC50, NFkB-luciferase reporter, PD-L1 expressing CHO cells, 24h [6] | EC50, NFkB-luciferase reporter, PD-L1 expressing CHO cells, 24h, + HSA [6] | EC50, NFkB-luciferase reporter, CHO-PD-L1 cells [7] | EC50 of IL-2 secretion, PBMC stimulated with SEA (human PD-L1 on cells [9]) | IC50, NFAT-luciferase reporter gene assay (human PD-L1 on cells [10]) | other results |
| --- | --- | --- | --- | --- | --- | --- | --- | --- | --- | --- | --- | --- | --- |
| B1 | 0.0795 µg/mL and 0.104 µg/mL and 0.0865 µg/mL | 0.212 µg/mL and 0.11 µg/mL and 0.112 µg/mL | 0.114 µg/mL and 0.145 µg/mL and 0.108 µg/mL | 0.0565 µg/mL | 0.0777 µg/mL | 0.0528 µg/mL | 0.0475 µg/mL | 0.0466 µg/mL | 0.0782 µg/mL | 0.0791 µg/mL |  |  |  |
| B2 | 0.00513 µg/mL and 0.00486 µg/mL and 0.0063 µg/mL | 0.0115 µg/mL and 0.0131 µg/mL and 0.013 µg/mL | 0.00927 µg/mL and 0.00888 µg/mL and 0.00923 µg/mL | 0.00784 µg/mL | 0.00792 µg/mL | 0.00751 µg/mL | 0.00952 µg/mL | 0.0138 µg/mL | 0.0149 µg/mL | 0.0117 µg/mL | 0.0399 µg/mL | 0.137 µg/mL | max. activation (%), NF-kB reporter, CHO-PD-L1 [8]: 499%; max. activation (%), NF-kB reporter, HCC827 +IFNg [8]: 134%; max. activation (%), NF-kB reporter, HCC827 -IFNg [8]: 111%; EC50 of IL-2 secretion, PBMC + CHO cells expressing PD-L1 (50000/well), anti-CD3 1 ug/ml (human PD-L1 on cells [11]): 0.0129 µg/mL; EC50 of IL-2 secretion, PBMC + CHO cells expressing PD-L1 (50000/well), anti-CD3 2 ug/ml (human PD-L1 on cells [11]): 0.052 µg/mL; EC50 of IL-2 secretion, PBMC + CHO cells expressing PD-L1 (100000/well), anti-CD3 1 ug/ml (human PD-L1 on cells [11]): 0.0862 µg/mL; EC50 of IL-2 secretion, PBMC + CHO cells expressing PD-L1 (100000/well), anti-CD3 2 ug/ml (human PD-L1 on cells [11]): 0.0419 µg/mL; EC50 of IL-2 secretion, PBMC + CHO cells expressing PD-L1 (200000/well), anti-CD3 1 ug/ml (human PD-L1 on cells [11]): 0.0806 µg/mL; EC50 of IL-2 secretion, PBMC + CHO cells expressing PD-L1 (200000/well), anti-CD3 2 ug/ml (human PD-L1 on cells [11]): 0.0301 µg/mL |
| B3 |  |  |  |  |  |  |  |  |  |  | 0.0409 µg/mL | 0.0111 µg/mL | fold higher affinity against the STR graft of clone 33-03-G02 (PRO1126) [12]: ~2 fold; fold higher potency on VH4 framework than on VH1 framework (PRO1013), NFAT reporter (human PD-L1 on cells [13]): ~2 fold |
